{"source": "the RNAGym collection of RNA variant scans (doi:10.7554/elife.80360)", "parents": {"B1": {"name": "Hairpin Ribozyme (parent)", "chain": "GUCCUCUUUCACGUGCGCGUGAAAGAGAGAAGUGAACCAGAGAAACACACGUUGUGGUAUAUUACCUGGUA"}}}
{"variants_of": "B1", "test": "self-cleavage, relative activity (ratio to wild type); higher = more cleavage; co-transcriptional"}
{"variant": "C50U A59C", "self-cleavage": 0.166}
{"variant": "C50U A59G", "self-cleavage": 0.204}
{"variant": "C50U A61C", "self-cleavage": 0.181}
{"variant": "C50U A61U", "self-cleavage": 0.13}
{"variant": "C50U A64C", "self-cleavage": 0.159}
{"variant": "C50U A64U", "self-cleavage": 0.0365}
{"variant": "C50U A71G", "self-cleavage": 0.457}
{"variant": "C50U C65G", "self-cleavage": 0.161}
{"variant": "C50U C66A", "self-cleavage": 0.165}
{"variant": "C50U C66G", "self-cleavage": 0.166}
{"variant": "C50U G51A", "self-cleavage": 0.322}
{"variant": "C50U G51U", "self-cleavage": 0.424}
{"variant": "C50U G54U", "self-cleavage": 0.905}
{"variant": "C50U G56U", "self-cleavage": 0.121}
{"variant": "C50U G57C", "self-cleavage": 0.16}
{"variant": "C50U G57U", "self-cleavage": 0.183}
{"variant": "C50U G68U", "self-cleavage": 0.16}
{"variant": "C50U G69A", "self-cleavage": 0.112}
{"variant": "C50U G69C", "self-cleavage": 0.142}
{"variant": "C50U U52A", "self-cleavage": 0.456}
{"variant": "C50U U52C", "self-cleavage": 0.343}
{"variant": "C50U U53A", "self-cleavage": 0.335}
{"variant": "C50U U55A", "self-cleavage": 0.32}
{"variant": "C50U U55C", "self-cleavage": 0.615}
{"variant": "C50U U58G", "self-cleavage": 0.262}
{"variant": "C50U U62A", "self-cleavage": 0.185}
{"variant": "C50U U63A", "self-cleavage": 0.172}
{"variant": "C50U U63C", "self-cleavage": 0.217}
{"variant": "C50U U63G", "self-cleavage": 0.198}
{"variant": "C50U U67A", "self-cleavage": 0.2}
{"variant": "C50U U67G", "self-cleavage": 0.181}
{"variant": "G51A", "self-cleavage": 1.03}
{"variant": "G51A A59C", "self-cleavage": 0.181}
{"variant": "G51A A64U", "self-cleavage": 0.22}
{"variant": "G51A A71G", "self-cleavage": 0.934}
{"variant": "G51A A71U", "self-cleavage": 0.718}
{"variant": "G51A C65A", "self-cleavage": 1.17}
{"variant": "G51A C65G", "self-cleavage": 0.287}
{"variant": "G51A C66A", "self-cleavage": 0.344}
{"variant": "G51A G54A", "self-cleavage": 0.62}
{"variant": "G51A G54U", "self-cleavage": 0.649}
{"variant": "G51A G56A", "self-cleavage": 0.197}
{"variant": "G51A G69C", "self-cleavage": 0.467}
{"variant": "G51A U52C", "self-cleavage": 0.738}
{"variant": "G51A U52G", "self-cleavage": 0.981}
{"variant": "G51A U53C", "self-cleavage": 1.28}
{"variant": "G51A U58C", "self-cleavage": 1.09}
{"variant": "G51A U62A", "self-cleavage": 0.137}
{"variant": "G51A U62C", "self-cleavage": 0.364}
{"variant": "G51A U63G", "self-cleavage": 0.135}
{"variant": "G51A U67A", "self-cleavage": 0.291}
{"variant": "G51A U67C", "self-cleavage": 0.296}
{"variant": "G51A U70A", "self-cleavage": 1.09}
{"variant": "G51A U70C", "self-cleavage": 1.1}
{"variant": "G51C", "self-cleavage": 0.876}
{"variant": "G51C A59G", "self-cleavage": 0.166}
{"variant": "G51C A59U", "self-cleavage": 0.172}
{"variant": "G51C A61C", "self-cleavage": 0.0996}
{"variant": "G51C A71C", "self-cleavage": 1.3}
{"variant": "G51C A71G", "self-cleavage": 0.814}
{"variant": "G51C C66A", "self-cleavage": 0.184}
{"variant": "G51C C66U", "self-cleavage": 0.452}
{"variant": "G51C G56C", "self-cleavage": 0.065}
{"variant": "G51C G68A", "self-cleavage": 0.254}
{"variant": "G51C G68C", "self-cleavage": 0.322}
{"variant": "G51C U52C", "self-cleavage": 1.16}
{"variant": "G51C U53A", "self-cleavage": 0.72}
{"variant": "G51C U60G", "self-cleavage": 0.62}
{"variant": "G51C U67A", "self-cleavage": 0.123}
{"variant": "G51C U70G", "self-cleavage": 0.704}
{"variant": "G51U", "self-cleavage": 1.03}
{"variant": "G51U A59C", "self-cleavage": 0.103}
{"variant": "G51U A61C", "self-cleavage": 0.109}
{"variant": "G51U A64G", "self-cleavage": 0.544}
{"variant": "G51U A71G", "self-cleavage": 1.24}
{"variant": "G51U C65G", "self-cleavage": 0.354}
{"variant": "G51U C66A", "self-cleavage": 0.192}
{"variant": "G51U G56A", "self-cleavage": 0.153}
{"variant": "G51U G56U", "self-cleavage": 0.0869}
{"variant": "G51U G68A", "self-cleavage": 0.312}
{"variant": "G51U G68C", "self-cleavage": 0.274}
{"variant": "G51U G69A", "self-cleavage": 0.457}
{"variant": "G51U G69U", "self-cleavage": 0.287}
{"variant": "G51U U52A", "self-cleavage": 1.1}
{"variant": "G51U U52G", "self-cleavage": 0.648}
{"variant": "G51U U53A", "self-cleavage": 1.07}
{"variant": "G51U U53C", "self-cleavage": 0.777}
{"variant": "G51U U58C", "self-cleavage": 0.982}
{"variant": "G51U U58G", "self-cleavage": 0.797}
{"variant": "G51U U62A", "self-cleavage": 0.25}
{"variant": "G51U U67A", "self-cleavage": 0.236}
{"variant": "G51U U70A", "self-cleavage": 1.1}
{"variant": "G51U U70C", "self-cleavage": 1.01}
{"variant": "G51U U70G", "self-cleavage": 0.887}
{"variant": "U52A A61C", "self-cleavage": 0.256}
{"variant": "U52A A64C", "self-cleavage": 0.253}
{"variant": "U52A A64G", "self-cleavage": 0.603}
{"variant": "U52A C65G", "self-cleavage": 0.258}
{"variant": "U52A G54C", "self-cleavage": 0.47}
{"variant": "U52A G54U", "self-cleavage": 0.64}
{"variant": "U52A G56A", "self-cleavage": 0.256}
{"variant": "U52A G57C", "self-cleavage": 0.0886}
{"variant": "U52A G68A", "self-cleavage": 0.337}
{"variant": "U52A G68U", "self-cleavage": 0.309}
{"variant": "U52A G69A", "self-cleavage": 0.464}
{"variant": "U52A G69U", "self-cleavage": 0.325}
{"variant": "U52A U55A", "self-cleavage": 0.33}
{"variant": "U52A U55C", "self-cleavage": 0.438}
{"variant": "U52A U58A", "self-cleavage": 0.818}
{"variant": "U52A U58C", "self-cleavage": 0.881}
{"variant": "U52A U58G", "self-cleavage": 0.678}
{"variant": "U52A U60G", "self-cleavage": 0.54}
{"variant": "U52A U63A", "self-cleavage": 0.424}
{"variant": "U52A U63C", "self-cleavage": 0.32}
{"variant": "U52A U67G", "self-cleavage": 0.408}
{"variant": "U52A U70A", "self-cleavage": 0.825}
{"variant": "U52A U70C", "self-cleavage": 0.801}
{"variant": "U52A U70G", "self-cleavage": 0.86}
{"variant": "U52C A59U", "self-cleavage": 0.115}
{"variant": "U52C A64C", "self-cleavage": 0.128}
{"variant": "U52C A64G", "self-cleavage": 0.546}
{"variant": "U52C A71U", "self-cleavage": 0.913}
{"variant": "U52C C65A", "self-cleavage": 1.2}
{"variant": "U52C C65U", "self-cleavage": 0.471}
{"variant": "U52C C66G", "self-cleavage": 0.244}
{"variant": "U52C G56C", "self-cleavage": 0.165}
{"variant": "U52C G56U", "self-cleavage": 0.149}
{"variant": "U52C G57A", "self-cleavage": 0.223}
{"variant": "U52C G57C", "self-cleavage": 0.123}
{"variant": "U52C G69U", "self-cleavage": 0.21}
{"variant": "U52C U53C", "self-cleavage": 1.07}
{"variant": "U52C U53G", "self-cleavage": 1}
{"variant": "U52C U55A", "self-cleavage": 0.318}
{"variant": "U52C U55C", "self-cleavage": 0.536}
{"variant": "U52C U58G", "self-cleavage": 0.606}
{"variant": "U52C U60A", "self-cleavage": 1.14}
{"variant": "U52C U62A", "self-cleavage": 0.32}
{"variant": "U52C U63G", "self-cleavage": 0.341}
{"variant": "U52C U67C", "self-cleavage": 0.274}
{"variant": "U52C U70C", "self-cleavage": 1.11}
{"variant": "U52C U70G", "self-cleavage": 0.988}
{"variant": "U52G A59C", "self-cleavage": 0.206}
{"variant": "U52G A59G", "self-cleavage": 0.25}
{"variant": "U52G A71C", "self-cleavage": 1.32}
{"variant": "U52G A71G", "self-cleavage": 0.654}
{"variant": "U52G C65U", "self-cleavage": 0.302}
{"variant": "U52G C66U", "self-cleavage": 0.474}
{"variant": "U52G G56U", "self-cleavage": 0.131}
{"variant": "U52G G57A", "self-cleavage": 0.181}
{"variant": "U52G G57C", "self-cleavage": 0.216}
{"variant": "U52G G57U", "self-cleavage": 0.232}
{"variant": "U52G G68C", "self-cleavage": 0.283}
{"variant": "U52G G68U", "self-cleavage": 0.136}
{"variant": "U52G G69C", "self-cleavage": 0.478}
{"variant": "U52G U53A", "self-cleavage": 0.857}
{"variant": "U52G U53G", "self-cleavage": 1.39}
{"variant": "U52G U58A", "self-cleavage": 0.452}
{"variant": "U52G U58C", "self-cleavage": 0.707}
{"variant": "U52G U60C", "self-cleavage": 1.08}
{"variant": "U52G U62C", "self-cleavage": 0.126}
{"variant": "U52G U62G", "self-cleavage": 0.0994}
{"variant": "U52G U63A", "self-cleavage": 0.139}
{"variant": "U52G U63G", "self-cleavage": 0.134}
{"variant": "U52G U67G", "self-cleavage": 0.156}
{"variant": "U52G U70C", "self-cleavage": 0.605}
{"variant": "U53A A59C", "self-cleavage": 0.0694}
{"variant": "U53A A64U", "self-cleavage": 0.143}
